Test results: publication PMC9929924, “Phosphorylation of the receptor protein Pex5p modulates import of proteins into peroxisomes” (Biological Chemistry, 2022)

Legend:
[1] = system: docking complex (Pex14p/Pex17p/Pex13p); assay: Association of Pex5p variants with the peroxisomal docking complex; assay type: binding, S. cerevisiae; details: TPA-tagged Pex5p variants, digitonin-solubilized membrane fractions; immunoblot
Method: Pex5p was affinity-purified from crude membrane and cytosolic fractions prepared from oleic acid-induced cells expressing TPA-tagged Pex5p as described before with slight modifications ([Agne et al. 2003]; [Schafer et al. 2004]). In brief, cytosolic and membrane fractions were prepared as described above using lysis buffer containing 10% (v/v) glycerol. For the analysis of Pex5p phosphorylation sites, crude membrane fractions were resuspended in glycerol-containing lysis buffer, the protein concentration was adjusted to 5 mg ml^−1, and proteins were solubilized using 1% (v/v) Triton X-100. Unsolubilized material was removed by centrifugation (100,000 g, 1 h, 4 °C). The cleared detergent extracts as well as cytosolic fractions were subjected to affinity purification via IgG Sepharose. Proteins bound to the matrix were eluted by incubation with AcTEV protease (Thermo Fisher Scientific/Invitrogen) followed by addition of Ni-NTA agarose to remove the His-tagged TEV protease. Eluted proteins were collected by centrifugation and precipitated by adding the fivefold volume of ice-cold acetone followed by incubation at −20 °C for at least 1 h. […]
Immunoblot analyses were performed according to standard procedures. […] Quantification of immunoblot signals (Supplementary Figure 1E; n = 3) was performed using the software Image Studio Lite (LI-COR Biosciences).

[2] = Native MS of purified individual proteins (oligomeric state); assay type: physicochemical; details: Pex5p 7.5 µM, Pcs60p 5 µM; 200 mM ammonium acetate pH 6.8
Method: Recombinantly expressed Pex5p variants and Pcs60p protein solutions were buffer-exchanged into 200 mM ammonium acetate pH 6.8 at 4 °C using microcentrifuge gel filtration columns Bio-Spin 6 (Bio-Rad Laboratories). Protein concentration was determined spectrophotometrically using a Nanodrop 2000c (Thermo Scientific) by measuring absorption at 280 nm. Proteins were either analyzed individually or as mixture of Pex5p variant with Pcs60p at indicated concentrations to study receptor-cargo complex formation. For this, Pex5p^WT or Pex5p^2D mutant was incubated with Pcs60p for 5 min on ice. Spectra were obtained using a Synapt HDMS (Waters and MS Vision) equipped with an m/z 32,000 range quadrupole by introducing 3 µl sample with an in-house manufactured gold-coated capillary needle (Brosilicate Thin Wall with Filament Clark Capillary Glass, OD 1.0 mm, ID 0.78 mm; Harvard Apparatus). […]
Spectra were calibrated externally using cesium iodide. […] Quantification of complex abundances was performed based on area under signals using a similar approach as previously described ([Danquah et al. 2019]; [Yefremova et al. 2017]). To compare stabilities of receptor-cargo complexes for Pex5p^WT and Pex5p^2D the collisional activation was quantified by calculating center-of-mass energies (E com) based on the abundance-weighted mean charge states of the 1:1 complex for each acceleration voltage. […]

organellar pellet = assay: Distribution of Pex5p variants between cytosolic fraction and organellar pellet; assay type: cell-based, S. cerevisiae; details: postnuclear supernatants of oleate-grown cells; immunoblot; n = 3
Method: Spheroplasting of yeast cells, homogenization, preparation of postnuclear supernatants and generation of cytosolic fractions and organellar pellets by centrifugation (25,000 g for 15 min at 4 °C) were performed as described previously ([Erdmann et al. 1989]).
Immunoblot analyses were performed according to standard procedures. Polyclonal rabbit antibodies used were raised against Pex5p ([Albertini et al. 1997]), Pex14p ([Girzalsky et al. 1999]), Pex13p ([Girzalsky et al. 1999]) and Pex17p ([Huhse et al. 1998]). To detect GFP, monoclonal mouse antibodies (Sigma-Aldrich/Merck or Roche Diagnostics, Germany) were used. Immuno-reactive complexes were visualized either using the IRDye 800CW goat anti-mouse IgG or IRDye 680RD goat anti-rabbit secondary antibody (Li-COR Biosciences, Bad Homburg, Germany) followed by detection with an ‘Infrarot Imaging System’ (Li-COR Biosciences) or using horseradish-peroxidase coupled anti-rabbit or anti-mouse antibodies (Sigma-Aldrich/Merck, Germany) and subsequent detection of chemiluminescence signals with a ChemoCam Camera system (INTAS Science instruments GmbH, Göttingen, Germany). Quantification of immunoblot signals (Supplementary Figure 1E; n = 3) was performed using the software Image Studio Lite (LI-COR Biosciences).

[3] = Circular dichroism, folding of Pex5p variants; assay type: physicochemical; details: far-UV CD; 25 mM phosphate buffer pH 7.5, 150 mM NaF; 0.2 mg ml^−1
Method: Circular dichroism (CD) experiments were performed on a J-810 spectropolarimeter (Jasco). Proteins were dialyzed against 25 mM phosphate buffer (pH 7.5), 150 mM NaF. Far-UV spectra were recorded between 180 and 280 nm, using a 1-mm cuvette and a concentration of 0.2 mg ml^−1 protein. The machine settings were 1 nm bandwidth, 1 s response, 1 nm data pitch and 100 nm min^−1 scan speed.

B1: Pex5p^WT: Pex5p wildtype, PTS1 receptor of S. cerevisiae (protein)
chain: MDVGSCSVGNNPLAQLHKHTQQNKSLQFNQKNNGRLNESPLQGTNKPGISEAFISNVNAISQENMANMQRFINGEPLIDDKRRMEIGPSSGRLPPFSNVHSLQTSANPTQIKGVNDISHWSQEFQGSNSIQNRNADTGNSEKAWQRGSTTASSRFQYPNTMMNNYAYASMNSLSGSRLQSPAFMNQQQSGRSKEGVNEQEQQPWTDQFEKLEKEVSENLDINDEIEKEENVSEVEQNKPETVEKEEGVYGDQYQSDFQEVWDSIHKDAEEVLPSELVNDDLNLGEDYLKYLGGRVNGNIEYAFQSNNEYFNNPNAYKIGCLLMENGAKLSEAALAFEAAVKEKPDHVDAWLRLGLVQTQNEKELNGISALEECLKLDPKNLEAMKTLAISYINEGYDMSAFTMLDKWAETKYPEIWSRIKQQDDKFQKEKGFTHIDMNAHITKQFLQLANNLSTIDPEIQLCLGLLFYTKDDFDKTIDCFESALRVNPNDELMWNRLGASLANSNRSEEAIQAYHRALQLKPSFVRARYNLAVSSMNIGCFKEAAGYLLSVLSMHEVNTNNKKGDVGSLLNTYNDTVIETLKRVFIAMNRDDLLQEVKPGMDLKRFKGEFSF
modifications: left off: His6, N-terminal, state not stated
notes: Pex5p wildtype, PTS1 receptor of S. cerevisiae
composition of docking complex and abundance of individual proteins [1]: comparable irrespective of the Pex5p variant expressed | oligomeric state in native MS [2]: mainly detected in a monomeric state | distribution between cytosolic fraction and organellar pellet (membrane binding) (organellar pellet): no detectable difference | folding [3]: folded with no major structural changes
